Reference: the supplement of paper PMC5998384

How the values were obtained:
[1] = test system: HeLa Kyoto; assay: solubility in G1/S (NP-40 vs SDS abundance) (log2 ratio); higher = more soluble; conditions: cell cycle stage: G1/S
[2] = test system: HeLa Kyoto; assay: melting temperature (median over replicates), in situ; higher = more thermally stable
[3] = test system: HeLa Kyoto; assay: solubility change mitosis vs G1/S (difference of NP-40 vs SDS log2 ratios) (log2 ratio difference); higher = more soluble in mitosis
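Throughout, for melting temperature (median over replicates), in situ: HeLa Kyoto cells synchronized by double thymidine or nocodazole block, proteins quantified by TMT10plex mass spectrometry, three independent biological replicates.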
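Throughout, for solubility change mitosis vs G1/S (difference of NP-40 vs SDS log2 ratios): synchronized HeLa Kyoto cells (double thymidine block for G1/S, nocodazole release for mitosis), protein amounts in NP-40 versus SDS lysates quantified by mass spectrometry, three biological replicates.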
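Throughout, for solubility in G1/S (NP-40 vs SDS abundance): HeLa Kyoto cells arrested at G1/S by double thymidine block, proteins quantified by TMT10plex mass spectrometry in mild NP-40 versus SDS extracts, three biological replicates.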

PYM1, sequence (chain, as listed by the source): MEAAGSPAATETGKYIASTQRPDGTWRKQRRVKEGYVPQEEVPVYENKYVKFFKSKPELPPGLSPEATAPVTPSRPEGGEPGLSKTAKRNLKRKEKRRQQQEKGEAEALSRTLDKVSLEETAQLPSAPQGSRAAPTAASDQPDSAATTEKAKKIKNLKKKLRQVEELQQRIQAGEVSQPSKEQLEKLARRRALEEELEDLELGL

Substance	solubility in G1/S (log2) [1]	melting temperature ([2]; cell cycle stage: G1/S) [°C]	melting temperature ([2]; cell cycle stage: mitosis) [°C]	solubility change mitosis (log2) [3]
MGAPRSLLLALAAGLAVARPPNIVLIFADDLGYGDLGCYGHPSSTTPNLDQLAAGGLRFTDFYVPVSLCTPSRAALLTGRLPVRMGMYPGVLVPSSRGGLPLEEVTVAEVLAARGYLTGMAGKWHLGVGPEGAFLPPHQGFHRFLGIPYSHDQGPCQNLTCFPPATPCDGGCDQGLVPIPLLANLSVEAQPPWLPGLEARYMAFAHDLMADAQRQDRPFFLYYASHHTHYPQFSGQSFAERSGRGPFGDSLMELDAAVGTLMTAIGDLGLLEETLVIFTADNGPETMRMSRGGCSGLLRCGKGTTYEGGVREPALAFWPGHIAPGVTHELASSLDLLPTLAALAGAPLPNVTLDGFDLSPLLLGTGKSPRQSLFFYPSYPDEVRGVFAVRTGKYKAHFFTQGSAHSDTTADPACHASSSLTAHEPPLLYDLSKDPGENYNLLGGVAGATPEVLQALKQLQLLKAQLDAAVTFGPSQVARGEDPALQICCHPGCTPRPACCHCPDPHA [ARSA]	0.664	55.6	55.6	-0.0336
RINT1	-0.0714	51.4	49.2	-0.105
MTKIKADPDGPEAQAEACSGERTYQELLVNQNPIAQPLASRRLTRKLYKCIKKAVKQKQIRRGVKEVQKFVNKGEKGIMVLAGDTLPIEVYCHLPVMCEDRNLPYVYIPSKTDLGAAAGSKRPTCVIMVKPHEEYQEAYDECLEEVQSLPLPL [NHP2]	-1.1	55.3	54.1	1.21
MDVSGQETDWRSTAFRQKLVSQIEDAMRKAGVAHSKSSKDMESHVFLKAKTRDEYLSLVARLIIHFRDIHNKKSQASVSDPMNALQSLTGGPAAGAAGIGMPPRGPGQSLGGMGSLGAMGQPMSLSGQPPPGTSGMAPHSMAVVSTATPQTQLQLQQVALQQQQQQQQFQQQQQAALQQQQQQQQQQQFQAQQSAMQQQFQAVVQQQQQLQQQQQQQQHLIKLHHQNQQQIQQQQQQLQRIAQLQLQQQQQQQQQQQQQQQQALQAQPPIQQPPMQQPQPPPSQALPQQLQQMHHTQHHQPPPQPQQPPVAQNQPSQLPPQSQTQPLVSQAQALPGQMLYTQPPLKFVRAPMVVQQPPVQPQVQQQQTAVQTAQAAQMVAPGVQMITEALAQGGMHIRARFPPTTAVSAIPSSSIPLGRQPMAQVSQSSLPMLSSPSPGQQVQTPQSMPPPPQPSPQPGQPSSQPNSNVSSGPAPSPSSFLPSPSPQPSQSPVTARTPQNFSVPSPGPLNTPVNPSSVMSPAGSSQAEEQQYLDKLKQLSKYIEPLRRMINKIDKNEDRKKDLSKMKSLLDILTDPSKRCPLKTLQKCEIALEKLKNDMAVPTPPPPPVPPTKQQYLCQPLLDAVLANIRSPVFNHSLYRTFVPAMTAIHGPPITAPVVCTRKRRLEDDERQSIPSVLQGEVARLDPKFLVNLDPSHCSNNGTVHLICKLDDKDLPSVPPLELSVPADYPAQSPLWIDRQWQYDANPFLQSVHRCMTSRLLQLPDKHSVTALLNTWAQSVHQACLSAA [MED15]	0.144	–	51.3	0.147
MGEAGAGAGASGGPEASPEAEVVKLLPFLAPGARADLQAAAVRHVLALTGCGPGRALLAGQAALLQALMELAPASAPARDAARALVNLAADPGLHETLLAADPGLPARLMGRALDPQWPWAEEAAAALANLSREPAPCAALMAALAAAEPADSGLERLVRALCTPGYNARAPLHYLAPLLSNLSQRPAARAFLLDPDRCVVQRLLPLTQYPDSSVRRGGVVGTLRNCCFEHRHHEWLLGPEVDILPFLLLPLAGPEDFSEEEMERLPVDLQYLPPDKQREPDADIRKMLVEAIMLLTATAPGRQQVRDQGAYLILRELHSWEPEPDVRTACEKLIQVLIGDEPERGMENLLEVQVPEDVEQQLQQLDCREQEQLERELAPEPWVERATPT [HGH1]	0.131	48.7	50.5	0.156
MADEATRRVVSEIPVLKTNAGPRDRELWVQRLKEEYQSLIRYVENNKNADNDWFRLESNKEGTRWFGKCWYIHDLLKYEFDIEFDIPITYPTTAPEIAVPELDGKTAKMYRGGKICLTDHFKPLWARNVPKFGLAHLMALGLGPWLAVEIPDLIQKGVIQHKEKCNQ [UFC1]	0.134	53.3	52.9	0.23
RAP1GAP	0.239	49.2	–	-0.474
MDPGKDKEGVPQPSGPPARKKFVIPLDEDEVPPGVAKPLFRSTQSLPTVDTSAQAAPQTYAEYAISQPLEGAGATCPTGSEPLAGETPNQALKPGAKSNSIIVSPRQRGNPVLKFVRNVPWEFGDVIPDYVLGQSTCALFLSLRYHNLHPDYIHGRLQSLGKNFALRVLLVQVDVKDPQQALKELAKMCILADCTLILAWSPEEAGRYLETYKAYEQKPADLLMEKLEQDFVSRVTECLTTVKSVNKTDSQTLLTTFGSLEQLIAASREDLALCPGLGPQKARRLFDVLHEPFLKVP [ERCC1]	0.296	–	51	0.0087
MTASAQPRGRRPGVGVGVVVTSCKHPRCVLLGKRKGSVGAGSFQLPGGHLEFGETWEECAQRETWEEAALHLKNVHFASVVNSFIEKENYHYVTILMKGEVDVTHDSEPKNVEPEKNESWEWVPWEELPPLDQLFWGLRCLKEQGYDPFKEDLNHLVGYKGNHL [NUDT15]	0.425	53.4	52.3	-0.3
MSEVSCKKRDDYLEWPEYFMAVAFLSAQRSKDPNSQVGACIVNSENKIVGIGYNGMPNGCSDDVLPWRRTAENKLDTKYPYVCHAELNAIMNKNSTDVKGCSMYVALFPCNECAKLIIQAGIKEVIFMSDKYHDSDEATAARLLFNMAGVTFRKFIPKCSKIVIDFDSINSRPSQKLQ [DCTD]	0.419	59.8	58.5	0.0667
PYM1	0.42	57.1	53.9	0.791
MAAAEEGCSVGAEADRELEELLESALDDFDKAKPSPAPPSTTTAPDASGPQKRSPGDTAKDALFASQEKFFQELFDSELASQATAEFEKAMKELAEEEPHLVEQFQKLSEAAGRVGSDMTSQQEFTSCLKETLSGLAKNATDLQNSSMSEEELTKAMEGLGMDEGDGEGNILPIMQSIMQNLLSKDVLYPSLKEITEKYPEWLQSHRESLPPEQFEKYQEQHSVMCKICEQFEAETPTDSETTQKARFEMVLDLMQQLQDLGHPPKELAGEMPPGLNFDLDALNLSGPPGASGEQCLIM [G3V3G9]	-0.172	51.1	51.3	-0.158
MSYYLSSENHLDPGPIYMRENGQLHMVNLALDGVRSSLQKPRPFRLFPKGFSVELCMNREDDTARKEKTDHFIFTYTREGNLRYSAKSLFSLVLGFISDNVDHIDSLIGFPEQIAEKLFSAAEARQKFTEPGAGLRALQKFTEAYGSLVLCSLCLRNRYLVISEKLEEIKSFRELTCLDLSCCKLGDEHELLEHLTNEALSSVTQLHLKDNCLSDAGVRKMTAPVRVMKRGLENLTLLDLSCNPEITDAGIGYLFSFRKLNCLDISGTGLKDIKTVKHKLQTHIGLVHSKVPLKEFDHSNCKTEGWADQIVLQWERVTAEAVKPRETSEPRAAAQRFYGKRSRAEAPLKCPLADTHMNSSEKLQFYKEKAPDCHGPVLKHEAISSQESKKSKKRPFEESETEQNNSSQPSKQKYVCLAVEDWDLLNSY [LRRC42]	-0.0147	49	50.9	-0.111
MEVHGKPKASPSCSSPTRDSSGVPVSKELLTAGSDGRGGIWDRLLINSQPKSRKTSTLQTVRIERSPLLDQVQTFLPQMARANEKLRKEMAAAPPGRFNIENIDGPHSKVIQMDVALFEMNQSDSKEVDSSEESSQDSSENSSESEDEDDSIPSEVTIDNIKLPNSEGGKGKIEVLDSPASKKKK [C12ORF45]	-0.302	52.9	53.7	0.0873
MSRQTTSVGSSCLDLWREKNDRLVRQAKVAQNSGLTLRRQQLAQDALEGLRGLLHSLQGLPAAVPVLPLELTVTCNFIILRASLAQGFTEDQAQDIQRSLERVLETQEQQGPRLEQGLRELWDSVLRASCLLPELLSALHRLVGLQAALWLSADRLGDLALLLETLNGSQSGASKDLLLLLKTWSPPAEELDAPLTLQDAQGLKDVLLTAFAYRQGLQELITGNPDKALSSLHEAASGLCPRPVLVQVYTALGSCHRKMGNPQRALLYLVAALKEGSAWGPPLLEASRLYQQLGDTTAELESLELLVEALNVPCSSKAPQFLIEVELLLPPPDLASPLHCGTQSQTKHILASRCLQTGRAGDAAEHYLDLLALLLDSSEPRFSPPPSPPGPCMPEVFLEAAVALIQAGRAQDALTLCEELLSRTSSLLPKMSRLWEDARKGTKELPYCPLWVSATHLLQGQAWVQLGAQKVAISEFSRCLELLFRATPEEKEQGAAFNCEQGCKSDAALQQLRAAALISRGLEWVASGQDTKALQDFLLSVQMCPGNRDTYFHLLQTLKRLDRRDEATALWWRLEAQTKGSHEDALWSLPLYLESYLSWIRPSDRDAFLEEFRTSLPKSCDL [FANCG]	0.138	49.9	48	-0.0579
MAHAGGGSGGSGAGGPAGRGLSGARWGRSGSAGHEKLPVHVEDALTYLDQVKIRFGSDPATYNGFLEIMKEFKSQSIDTPGVIRRVSQLFHEHPDLIVGFNAFLPLGYRIDIPKNGKLNIQSPLTSQENSHNHGDGAEDFKQQVPYKEDKPQVPLESDSVEFNNAISYVNKIKTRFLDHPEIYRSFLEILHTYQKEQLNTRGRPFRGMSEEEVFTEVANLFRGQEDLLSEFGQFLPEAKRSLFTGNGPCEMHSVQKNEHDKTPEHSRKRSRPSLLRPVSAPAKKKMKLRGTKDLSIAAVGKYGTLQEFSFFDKVRRVLKSQEVYENFLRCIALFNQELVSGSELLQLVSPFLGKFPELFAQFKSFLGVKELSFAPPMSDRSGDGISREIDYASCKRIGSSYRALPKTYQQPKCSGRTAICKELDHWTLLQGSWTDDYCMSKFKNTCWIPGYSAGVLNDTWVSFPSWSEDSTFVSSKKTPYEEQLHRCEDERFELDVVLETNLATIRVLESVQKKLSRMAPEDQEKFRLDDSLGGTSEVIQRRAIYRIYGDKAPEIIESLKKNPVTAVPVVLKRLKAKEEEWREAQQGFNKIWREQYEKAYLKSLDHQAVNFKQNDTKALRSKSLLNEIESVYDEHQEQHSEGRSAPSSEPHLIFVYEDRQILEDAAALISYYVKRQPAIQKEDQGTIHQLLHQFVPSLFFSQQLDLGASEESADEDRDSPQGQTTDPSERKKPAPGPHSSPPEEKGAFGDAPATEQPPLPPPAPHKPLDDVYSLFFANNNWYFFLRLHQTLCSRLLKIYRQAQKQLLEYRTEKEREKLLCEGRREKGSDPAMELRLKQPSEVELEEYYPAFLDMVRSLLEGSIDPTQYEDTLREMFTIHAYVGFTMDKLVQNIARQLHHLVSDDVCLKVVELYLNEKKRGAAGGNLSSRCVRAARETSYQWKAERCMADENCFKVMFLQRKGQVIMTIELLDTEEAQTEDPVEVQHLARYVEQYVGTEGASSSPTEGFLLKPVFLQRNLKKFRRRWQSEQARALRGEARSSWKRLVGVESACDVDCRFKLSTHKMVFIVNSEDYMYRRGTLCRAKQVQPLVLLRHHQHFEEWHSRWLEDNVTVEAASLVQDWLMGEEDEDMVPCKTLCETVHVHGLPVTRYRVQYSRRPASP [SIN3B]	-0.231	47.9	49.3	0.0177
MASREEVLALQAEVAQREEELNSLKQKLASALLAEQEPQPERLVPVSPLPPKAALSRDEILRYSRQLVLPELGVHGQLRLGTACVLIVGCGGLGCPLAQYLAAAGVGRLGLVDYDVVEMSNLARQVLHGEALAGQAKAFSAAASLRRLNSAVECVPYTQALTPATALDLVRRYDVVADCSDNVPTRYLVNDACVLAGRPLVSASALRFEGQITVYHYDGGPCYRCIFPQPPPAETVTNCADGGVLGVVTGVLGCLQALEVLKIAAGLGPSYSGSLLLFDALRGHFRSIRLRSRRLDCAACGERPTVTDLLDYEAFCGSSATDKCRSLQLLSPEERVSVTDYKRLLDSGAFHLLLDVRPQVEVDICRLPHALHIPLKHLERRDAESLKLLKEAIWEEKQGTQEGAAVPIYVICKLGNDSQKAVKILQSLSAAQELDPLTVRDVVGGLMAWAAKIDGTFPQY [MOCS3]	0.156	51.3	49.5	-0.0562
